# Key:
# [1] = target: T1, G9a and GLP (Homo sapiens, UniProt Q96KQ7+Q9H9B1); assay: Triple SILAC pull-down after UNC0638 treatment of 293T cells, DMSO/UNC0638 ratio of protein captured by 3×MBT; type: cell-based; details: for Relative to UNC0638 UNC Heavy: UNC0638 in heavy SILAC media; for Relative to UNC0638 UNC Light: UNC0638 in light SILAC media; for Relative to UNC0638 Average: average of UNC Light and UNC Heavy experiments; for Candidate G9a/GLP target: reduced association with 3xMBT after UNC0638 treatment; for Protein Ratios DMSO/UNC0638: SILAC ratio of protein captured by 3xMBT, 293T cells treated 24 hours with UNC0638 at 2.5 μM or DMSO;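 as to all read-outs here: mass spectrometry (Q-Exactive) SILAC quantitation, DMSO/UNC0638 ratio computed after subtracting 3×MBTD355N mutant pull-down background, only proteins with at least twofold 3×MBT over mutant signal considered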
# T1 construct: endogenous in cells; host or cells: HEK 293T
# T1 sequence (Q96KQ7 2-1210 limits assumed): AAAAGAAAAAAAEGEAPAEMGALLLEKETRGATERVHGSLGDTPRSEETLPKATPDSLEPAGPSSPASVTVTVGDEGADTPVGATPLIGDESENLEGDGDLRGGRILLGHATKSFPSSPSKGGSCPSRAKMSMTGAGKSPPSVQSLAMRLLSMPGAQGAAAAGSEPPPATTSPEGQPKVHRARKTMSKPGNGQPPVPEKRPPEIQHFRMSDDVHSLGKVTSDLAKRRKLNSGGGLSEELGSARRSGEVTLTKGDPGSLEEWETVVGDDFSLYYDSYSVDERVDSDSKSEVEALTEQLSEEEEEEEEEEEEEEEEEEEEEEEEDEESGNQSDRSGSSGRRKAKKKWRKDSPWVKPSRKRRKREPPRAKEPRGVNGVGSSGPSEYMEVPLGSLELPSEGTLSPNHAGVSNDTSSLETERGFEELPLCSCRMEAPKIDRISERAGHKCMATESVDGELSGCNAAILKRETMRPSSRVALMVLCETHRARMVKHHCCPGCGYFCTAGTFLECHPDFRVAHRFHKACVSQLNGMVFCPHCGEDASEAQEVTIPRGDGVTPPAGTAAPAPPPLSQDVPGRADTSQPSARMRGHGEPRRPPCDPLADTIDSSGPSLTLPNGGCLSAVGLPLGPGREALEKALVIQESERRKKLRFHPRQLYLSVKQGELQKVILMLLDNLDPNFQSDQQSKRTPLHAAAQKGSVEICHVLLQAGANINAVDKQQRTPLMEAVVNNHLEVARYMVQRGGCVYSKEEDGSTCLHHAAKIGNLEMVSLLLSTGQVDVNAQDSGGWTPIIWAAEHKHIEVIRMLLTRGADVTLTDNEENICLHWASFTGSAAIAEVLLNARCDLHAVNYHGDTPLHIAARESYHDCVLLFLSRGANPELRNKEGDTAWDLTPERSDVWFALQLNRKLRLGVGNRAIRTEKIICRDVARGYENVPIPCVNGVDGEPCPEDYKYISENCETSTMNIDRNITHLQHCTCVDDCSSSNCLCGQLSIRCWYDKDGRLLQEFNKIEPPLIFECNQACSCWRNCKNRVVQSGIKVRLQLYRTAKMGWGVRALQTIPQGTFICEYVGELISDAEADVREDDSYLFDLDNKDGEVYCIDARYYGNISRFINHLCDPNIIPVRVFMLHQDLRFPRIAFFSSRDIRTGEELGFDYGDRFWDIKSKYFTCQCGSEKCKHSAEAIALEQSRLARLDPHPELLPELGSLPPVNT
# T1 sequence (Q9H9B1 2-1298 limits assumed): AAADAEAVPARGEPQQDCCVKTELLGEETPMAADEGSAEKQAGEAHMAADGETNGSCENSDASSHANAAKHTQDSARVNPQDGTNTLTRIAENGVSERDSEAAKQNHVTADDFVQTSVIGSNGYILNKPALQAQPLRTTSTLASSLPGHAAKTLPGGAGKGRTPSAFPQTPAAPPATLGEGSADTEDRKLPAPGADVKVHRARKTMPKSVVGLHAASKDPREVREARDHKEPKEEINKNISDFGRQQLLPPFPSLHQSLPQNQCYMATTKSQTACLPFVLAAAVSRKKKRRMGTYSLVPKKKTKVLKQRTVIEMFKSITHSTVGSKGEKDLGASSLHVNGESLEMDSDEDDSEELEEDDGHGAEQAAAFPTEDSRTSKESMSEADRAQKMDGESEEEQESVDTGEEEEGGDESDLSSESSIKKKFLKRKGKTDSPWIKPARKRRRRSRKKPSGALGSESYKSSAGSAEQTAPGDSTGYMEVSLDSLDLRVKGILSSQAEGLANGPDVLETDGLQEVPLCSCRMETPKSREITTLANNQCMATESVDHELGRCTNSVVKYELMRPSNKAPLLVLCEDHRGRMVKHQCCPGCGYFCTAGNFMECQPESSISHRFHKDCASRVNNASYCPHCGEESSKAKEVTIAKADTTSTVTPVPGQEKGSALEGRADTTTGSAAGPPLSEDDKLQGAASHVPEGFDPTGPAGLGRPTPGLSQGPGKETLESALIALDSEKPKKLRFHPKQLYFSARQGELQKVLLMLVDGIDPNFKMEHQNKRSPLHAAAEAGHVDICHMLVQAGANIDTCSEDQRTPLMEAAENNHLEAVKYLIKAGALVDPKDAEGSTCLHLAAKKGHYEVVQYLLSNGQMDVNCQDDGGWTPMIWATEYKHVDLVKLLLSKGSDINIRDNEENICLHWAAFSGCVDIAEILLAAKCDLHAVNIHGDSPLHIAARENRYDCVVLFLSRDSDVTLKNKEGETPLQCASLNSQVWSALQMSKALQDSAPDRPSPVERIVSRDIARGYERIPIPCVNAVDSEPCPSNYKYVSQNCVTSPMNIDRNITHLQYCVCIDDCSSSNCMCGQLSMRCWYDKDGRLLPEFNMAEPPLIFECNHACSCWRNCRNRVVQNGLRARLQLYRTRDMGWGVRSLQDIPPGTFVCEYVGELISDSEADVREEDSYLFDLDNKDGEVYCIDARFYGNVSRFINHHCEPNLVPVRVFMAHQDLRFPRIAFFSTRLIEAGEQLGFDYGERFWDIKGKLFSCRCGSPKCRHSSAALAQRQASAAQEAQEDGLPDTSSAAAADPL
# Method: For UNC0638 treatments cells were treated for 24 hours with UNC0638 at 2.5 μM or DMSO vehicle control. One experiment treated cells in light media with UNC0638, the other treated cells in heavy media. Both experiments included cells in medium media treated with DMSO for negative control pull-down with 3×MBTD355N.
# UNC0638 treatment experiments used a Q-Exactive mass spectrometer (ThermoFisher Scientific). A 25 cm HPLC column with 3 μm Reliasil (Orochem) was used to separate peptides over a 4 hour gradient from 0 to 75% acetonitrile. Ions were generated using a custom nanospray source flowing at 250 nL/minute. Mass spectrometry settings were 70,000 MS1 resolution, data dependent selection of up to 20 precursor ions per cycle, dynamic exclusion of 30 seconds and isolation window of 2 m/z.
# For UNC0638 experiments the treated vs. untreated ratio was determined by subtracting the value from 3×MBTD355N prior to dividing values from the light and heavy channels. Only proteins showing a two-fold signal to background ratio (3×MBT/3×MBTD355N) were evaluated as potential G9a/GLP substrates.
# [2] = system: 3×MBT domain of L3MBTL1; assay: Triple SILAC pull-down, 3xMBT/3xMBTD355N ratio (cytoplasmic, nuclear and chromatin fractions of 293T cells); type: binding, human; details: for 3xMBT/D355N UNC Heavy: experiment with UNC0638 in heavy SILAC media; for 3xMBT/D355N UNC Light: experiment with UNC0638 in light SILAC media; for Protein Ratios 3xMBT/D355N: pull-down by 3xMBT vs 3xMBTD355N;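 as to all read-outs here: proteins quantified with MaxQuant, requiring at least two unique peptides and quantification in both label directions, normalized to the mean of proteins from a digested loading control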
# [3] = SILAC ratio DMSO/UNC0638 of protein pulled down with 3xMBT
# [4] = SILAC ratio, pull-down 3xMBT vs 3xMBTD355N
# [5] = SILAC ratio DMSO relative to UNC0638, pull-down with 3xMBT, all values in log base 2
# [6] = SILAC ratio 3xMBT vs 3xMBTD355N pull-down, 293T cells, all values in log base 2
Substance,"Relative to UNC0638 UNC Heavy [1, 3]","Relative to UNC0638 UNC Light [1, 3]",Relative to UNC0638 Average [1],"3xMBT/D355N UNC Heavy [2, 4]","3xMBT/D355N UNC Light [2, 4]",Candidate G9a/GLP target [1],"Relative to UNC0638 UNC Heavy [1, 5]","Relative to UNC0638 UNC Light [1, 5]",Relative to UNC0638 Average ([1]; all values in log base 2),"3xMBT/D355N UNC Heavy [2, 6]","3xMBT/D355N UNC Light [2, 6]",Protein Ratios DMSO/UNC0638 [1],"Protein Ratios 3xMBT/D355N ([2]; SILAC ratio, 293T cells)"
KHDRBS1,0.54 log base 2,0.19 log base 2,0.37 log base 2,2.03 log base 2,2.82 log base 2,–,–,–,–,–,–,–,–
CSDA,0.30 log base 2,0.73 log base 2,0.52 log base 2,3.85 log base 2,3.10 log base 2,✓,–,–,–,–,–,–,–
CSNK2B,–,–,–,–,–,–,0.21 log base 2,−0.01 log base 2,0.10 log base 2,2.83 log base 2,2.65 log base 2,–,–
RPTOR,–,–,–,–,–,–,0.54 log base 2,−0.81 log base 2,−0.14 log base 2,1.86 log base 2,1.58 log base 2,–,–
NPM1,0.24 log base 2,0.11 log base 2,0.17 log base 2,1.24 log base 2,1.27 log base 2,–,–,–,–,–,–,–,–
FBXO22,–,–,–,–,–,–,0.58 log base 2,−0.59 log base 2,0.00 log base 2,3.56 log base 2,0.77 log base 2,–,–
METTL3,–,–,–,–,–,–,0.04 log base 2,−1.45 log base 2,−0.70 log base 2,3.18 log base 2,−0.51 log base 2,–,–
60S ribosomal protein L5,–,–,–,–,–,–,–,–,–,–,–,1.4,2.3
PRPF8,0.11 log base 2,0.17 log base 2,0.14 log base 2,2.51 log base 2,2.50 log base 2,–,–,–,–,–,–,–,–
CKAP5,0.24 log base 2,0.06 log base 2,0.15 log base 2,2.10 log base 2,1.30 log base 2,–,–,–,–,–,–,–,–
SNRNP200,0.19 log base 2,0.26 log base 2,0.22 log base 2,2.08 log base 2,3.14 log base 2,–,–,–,–,–,–,–,–
DDX21,–,0.14 log base 2,0.14 log base 2,0.55 log base 2,1.00 log base 2,–,–,–,–,–,–,–,–
Clathrin heavy chain 1,–,–,–,–,–,–,–,–,–,–,–,1.4,6.0
GRB2,–,–,–,–,–,–,0.36 log base 2,−0.45 log base 2,−0.05 log base 2,3.13 log base 2,1.36 log base 2,–,–
UHRF1,–,–,–,–,–,–,0.54 log base 2,−0.45 log base 2,0.04 log base 2,3.68 log base 2,2.24 log base 2,–,–
EIF4E,0.04 log base 2,0.31 log base 2,0.18 log base 2,2.40 log base 2,2.40 log base 2,–,–,–,–,–,–,–,–
PRKDC,0.21 log base 2,0.95 log base 2,0.58 log base 2,1.96 log base 2,2.39 log base 2,✓,–,–,–,–,–,–,–
PTBP1,0.33 log base 2,0.25 log base 2,0.29 log base 2,2.61 log base 2,3.23 log base 2,–,–,–,–,–,–,–,–

# Source: US20140274782A1, “AFFINITY REAGENTS AND METHODS FOR DETECTION, PURIFICATION, AND PROTEOMIC ANALYSIS OF METHYLATED PROTEINS” (The Board of Trustees of the Leland Stanford Junior …, priority 2013, published 2014)
